Experimental data: a protein production outcome set (Wang et al. 2014)

Test: label from the status in PepcDB records

MSIPFSNTHYRIPQGFGNLLEGLTREILREQPDNIPAFAAAYFESLLEKREKTNFDPAEWGSKVEDRFYNNHAFEEQEPPEKSDPKQEESQISGKEEETSVTILDSSEEDKEKEEVAAVKIQAAFRGHIAREEAKKMKTNSLQNEEKEENK
protein production: failed

MPKERVDVLAYKQGLFNTREQAKRGVMAGLVVNVINGERYDKPGEKIDEATELKLKGDKLKYVSRGGLKLEKALKVFVISVDGQITLDIGASTGGFTDVMLQNGAQLVYAVDVGTNQLVWKLRQDERVCSMEQYNFRYAEPSDFERGQPTFASIDVSFISLNLILPALSKILTDGGQVVALIKPQFEAGREQIGKHGIVKDKSVHETVLETVTTFATNYGFTVKELDFSPIQGGHGNIEFLAYLEKSAQAQNQVLTKIKSIVEQAHKEFKKNEET
protein production: not failed

MKLMQIRKPLLKSSLLDQNLTEEEVNMKFVQDLLNWVDEMQVQLDRTEWGSDLPSVESHLENHKNVHRAIEEFESSLKEAKISEIQMTAPLKLSYTDKLHRLESQYAKLLNTSRNQERHLDTLHNFVTRATNELIWLNEKEESEVAYDWSERNSSVARKKSYHAELMRELEQKEESIKAVQEIAEQLLLENHPARLTIEAYRAAMQTQWSWILQLCQCVEQHIQE
protein production: not failed

MSLKNKFKNFFSLDDEEYEYEYIETDREEIPEEHESKDRTAYQSKAAGKQNVVSLQSVQKSSKVVLSEPRVYAEAQEIADHIKNRRAVVVNLQRIQHDQAKRIVDFLSGTVYALGGDIQRIGADIFLCTPENVDVSGTISELIEEEHQRW
protein production: failed

MEIAKGVEMLQLEFQEFIIHPILLWNDEMAVLIDTGFPGQFEDIQVEMKRVGVSVDKLKVVILTHQDIDHIGSLPDLLENGVSDIKVYAHELDKRYIEGDLPLLKDVHVENPPKGKVSDTVIDGQELPYCGGILILHTPGHTPGHISLYLKQSKTLIAGDSMYSVNGKLGGIHAPTTLNIMEAQQSLKKYLNLDIESVVCYHGGLSKGNIKIQLQNL
protein production: failed

MNYSRIAEAIEYIRAHYKEQPGLDEVAEKVHLSPFHFQRIFTEWAGISPKKFLQYISLEHHHHHH
protein production: failed

MLMMLKSLRVNRILKLLLLAIFSSFMIIACGDRLTQYTVSQKISPSTECQVIQHQVGETQVCGQPQKIVALGPNVLEILLALDVQPVGFADHVPLHQGNYDNPSQQIPYLGERVTGELINLGLAYTPSIEALLKIKPDLIIGNELNRSQYEMLSKIAPTLLFPRFDAQPNLLAISKILGRSEKAKKILADSDQRLAIAQKALSDIVANHPQVLMLVSLGQSISEQLRFPRRDSFCDSLVTNLGFKLMSPSSLVPADKSVPPPLSIETLPQFNSADSIILLGANFSQVQLSDDKYFEPQMQKLKQQWSENAIAQSLTASKEGRVYFIPAYLCLGLPGPIGTELYLQELQKQLLSPQGK
protein production: failed

MLQGKVSVIVPAYNAARLLERCVRSITGQTYPALEVIVVDDGSKDDTGKIADQLAAEDSRIRVVHKTNGGVSAARNDALKLVEGEWITFVDSDDYLEPDFLRSLLDGEVADLVIGGYHTVGANEIPSANYPTDTAHSPEAIKRALEARLTDMTFLCPWGKLFRTSLVRSLRLIFNTEMKVGEDVVFVWSYLAHCSSLAFKQGQGYDYYTEPGADFKYALDETVSLQTIERILGVLDGLKRNFGMDTEHARCHVLNYYIWLFKLYVNRNYLLRDLARMKNFFYYPLILDYYKTYRRTSKDKLLVYLLLKLRLSGVLYLMIKLYYLEHHHHHH
protein production: not failed

MLRGILWDMDGTLVDSEGIWAQATFAMSTEMGRRLTAAQQRETVGSSFNFTVSLCASNAGIELDSEAKNYWQSFMSHYVTEKFDSSLLPNPGIKEVLDSCRNAEIPMAIATNTIRSIANHSIGAVGIEYFKATVCGDEVANPKPAPDVYLKGAQALGVPPEGCIVFEDSKSGMLGGLAAGCIVISVVDHLNNQPLPEGVVPLSRLHGSADFRGVSAEEIMQWYATLSPNAQ
protein production: failed

MHPVLIFLFALIAILLFTAKFRLHPFLSLVLVSLLTGILAGEPIRTIEAVTEGLGSVFSRFAIIITSGSIIGLLLQKTGGMSLIASDITRFFKNPLLALSFLGFLFSVPTMCYILAYVIFIPIAKELSSRFNYPPISTATALALGAVASFNLVYPSPVIISAAEELSANRDMLILLGFLTAVPTSFSGYLYARSLGKAEVSGMNEGGVIREKTIVKEKKDLSQENGALQRTENRKPGRFEAYAPIFIPLFLILFEAVLNNPNTLFTFLGNPNVALLIGVLLSIFSGRVLGLPMIRVQVEKAIKRSGVVLLDLCGGGALGATLAMTGAGEALGKFFLQFNLPHILVPFLVAAALQTVQGSRVVTMLVAPSLLLPLVPELGLPPEILILSMASGTFMISHVNDPFFWIFGELAELTPSEVFRSNTLGNALMGVVSFLIVSGIYFFFY
protein production: failed

MGVQSAVRVHRAISEIGQDAWDACAASTGDPFVSYDFLSILEESGCVAARTGWAPQHLTVLDEADQVAGVMPLYLKSHSQGEYVFDHSWADAYERAGGRYYPKLQCSSPFSPVTGSRLIVRPDIDAAEGRSALMGGALTLCERMGASSLHVTFPVEDQWRWMGERGMLLRQDQQYHWENRGYETFDDFLGALSANRRKTIRRERRDAQEGLEIVALTGADLTEDHWDAFFAFYMDTGGRKWGRPYLNRPFFSLLGQRMADKVLLILARRPGGPFIAGALNLLGRDCLYGRHWGCVEDAPFLHFELCYYQAIEHAIRLGLPRVEAGAQGQHKIARGYLPSAVYSAHWIADPMLREPVARYLERERAAVESDMEMLTEEYSPFREER
protein production: failed

MSEAERAGASRQDKSGRLLAGRYRLGDVLGRGGMGTVWRAEDETLGRTVAVKELRFPTSIDEDEKRRLITRTLREAKAIARIRNNSAVTVFDVVDEDNRPWIVMELVEGKSLAEAIREDGLLEPKRAAEVGLAILDVLRAAHREGILHRDVKPSNVLIAEDGRVVLTDFGIAQVEGDPSITSTGMLVGAPSYISPERARGHKPGPAADLWSLGGLLYASVEGVPPYDKGSAIATLTAVMTEPLEEPKNAGPLRSVIYGLLAKDPEQRLDDAGARAMLNEVLHAPQPKEPEPVDATRVVALPPVPEEGTGKGSSGGSGAKRGEEAADRFRGALRSVRKAAGAATASAAARAKSGGTDVSGGTGAAGAGTSSAGSSASASAPAPGKPGAAAVGKPNPSSAGKPGSSAAATPAGTGSGVGQGTAVGGGGRESAVVGSNSGPVKPSSGWPVVPEPDRPPRSVPRAPLTDVVPRRTLVIVAVVVVLAVLGVVLALTLGGDDGSSKDNKGSSDTKAAASSGTSSGTTAGSSGTPKAGGSGSGSGGTHTDSGSKDNTGTGSDEQETDDSSSAGTASGSGGSDDSGSGSGDSSVKTYKSSQGFSIGLPKGWKYQSTGAAGARFTGPDGQKLLVGWTTTPKDDPVADWKNQEQYMVRSQYKRIRIEQVDYRGWNTADWEFTYTEGGTKYRSIDRGFVVNAHQGYALMYTAKASEWDSDLRKDTWQTLAKTFQPKS
protein production: failed

MEEKNIHMQPNINYSYRNPNMYNMNYHNPIVPPPQQQMQLFVNDWKSILSPMQTCKIKQQFDDREFVADYFMGFKLDFNNKYLILDASTELMKFTACEKSEFCYRNCLPKICIPMNMKILSYGKEISKPDILMEKDCTCTFLCFNRPTIKMYDFSNNNNKELIGTIKTPYRCCSYNFNLFDPSNNKIMYMDDTCCQMSILCPCPWGPFKYSNFFLRDANSKEKIAHLRKEVPFLKFVKRDIDNYTLDFEQVQNPEWKMMLLAFALFLDYMYYDRK
protein production: failed

MGKYTSEHHKDSRIVQLFQDGQYFYHKGLKAYRERNLSRASKLIQRAIFLEPENTGMLSQLAVIYTEMGFYQQSNELLDFILKNINEKMTECYYFKANNYAHLGLFQEAYKAAETYLKEDPDGEFSEENAELLDLLDMGEEDQGYSQFDQDDLILKQDRAKSLLENGQLQESIAMLEEIISDYPEFWSAYNNLALAYFYAGDVQKAKTTVFTVLEKSHGNLHALCNLLIFYHYERRDDKVEALSEQLSNIYPMLFEQRYKLGATLALVGRYDLGFKWLKSLYRMGFEGDETFYYWLACSAYYTGRVQFARSVWKKMQEEYPDDARMEPWKERKEKRPVQRPLEERLAAYYISGRKGEKAQLKAVLDSQMAKTPFEDQFVRLVLYGESGAAVDSKDALLAYRTAKAIEQADQSAMEQEAMCFWIFHVIQQIRAYGLQLKNAGGLAAAIYYIWKTEHQERLTKAETAKIFQISPGTLSKYERTLKEHL
protein production: failed

MECKTMERITVNLGERSYPISIGAGLFANPALLSLSAKQKVVIVTNHTVAPLYAPAIISLLDHIGCQHALLELPDGEQYKTLETFNTVMSFLLEHNYSRDVVVIALGGGVIGDLVGFAAACYQRGVDFIQIPTTLLSQVDSSVGGKTAVNHPLGKNMIGAFYQPKAVVIDTDCLTTLPAREFAAGMAEVIKYGIIYDSAFFDWLEAQMEALYALDEQALTYAIARCCQIKAEVVAQDEKESGIRALLNLGHTFGHAIEAHMGYGNWLHGEAVSAGTVMAAKTAQLQGLIDASQFERILAILKKAHLPVRTPENMTFADFMQHMMRDKKVLAGELRLVLPTSIGTSAVVKGVPEAVIAQAIEYCRTV
protein production: not failed

MKLERFYRDTILLTMSNFATGILKFIFSVILSEKLGAEGVGLYQLIMPVYDLFCCLVCGGLNIAVSRKVAILSGKNDYSNVNSLIKISSLFCFIWSSLVAVILFFNSRFISNSFIKDMRSLYSLELICPALIFVTISAILKGYFYGISKAKVPAYIDILEKASRVGIVIAIINIFMLKSISKTVTAVYGVLSLGEFISLIALYIAFLIYRRNLRPVYSDRESSGQLIFDVFSVSIPLCINSFVSSLLAAASTLILPVRLVHAGFLHSEALSLIGKFSGMALIVTSFPVVIIVAMSTVLIPEISQNLNKRDYYSIEKRVTQVLKISFFLGTITMIIALSIPNLLGKLFFSRNDLGNYIAASALSVPVDYTSFATFSILSGLGKQNKLLINSLIVSIEQLILLYVLTGIRFINIYGYAITLFVTCLTAYILNMKEIRKVCYIRFSFVDMFIDTLLCILVYLILSILNNIVPNRFILPKTLFIIILGFVLFTFAITKIKDKLK
protein production: failed

MEPLTALAQSLGLAFASGISAYAAAAFVGLAGHLGWIGPLPGALGVLTDPWVFGTAGALALVEALAMLVPGIATAWEAIHTAIRPFAAAALAVLATWGEPRLAVVAALLGGALGLATHATKLGLRATIDTSPEPVTNAAATTGELGVVAALAWAIWAHPWIALAAALVLLTALLYVVRALWRTVARAIAALFSPPTAPGS
protein production: failed

KSEAGAGKKVQVEFVSANPTGPLHIGHGRGAAIGDTICRLLAAIGWDVTREFYYNDAGQQIANLALSVQARCLGVEPGGPLWPTDGYQGEYIKDVARSYLNRETVDAGDQHVTAAGDPHDVEAIRRFAVAYLRREQDQDLRAFDVGFDVYFLESSLYAEGRVDDVVQRIIAKGHAYEQDGALWLRTTEFGDDKDRVMRKSDGSYTYFVPDVAYHLNKWERGFIRVVNEQGADHHSTITRVRAGLQALDAGIPKGWPEYVLHQMVTVMRGGEEVKISKRAGSYVTLRDLVDEVGRDATRFFFLMRKPDSQLVFDIDLAKQQTLENPVYYVQYAHARICSIFENAADKGVVPPT
protein production: failed

VADASDPIRPLVEALNAEAPLKLWSVLVTCLGDVSRDGVIEVSGVALSSFVERMGLQPQAMRVALHRLKRDGWVESRRLGRVGFHRLSDSALTQTRAVAGRIYGPGAGPAPWHLAGMPPDAPDGLSLLPDTLSATPISRRFALICGPLEDVPEDWLLTAPSGRGLPVWVQDVVVEAGCEAEFKALERTLAQIDKVPDTRLERFTLRVLVLHAWRRLILRSSPAAEAALGGARAEISCRARVHQLLDQLGSVEPDWDLPATEDAAS
protein production: not failed

MRLYTRTGDKGKTSVIGGRLAKDDTRVVAYGTTDELNSFVGLAITQLDENTFADIRGELFKIQHELFDCGGDLAMLKVKEDRPYKAKQEIVDFLEQRIDAYIKEAPELERFILPGGSEAAASLHVCRTIARRAERYVVRLQQEGEINPIVLKYLNRLSDYFFAVARVVNSRLQVPDVEYERSAIVFREGKRKEDKK
protein production: not failed

RRCQVHLLDDRKLELLVQPKLLAKELLDLVASHFNLKEKEYFGIAFTDETGHLNWLQLDRRVLEHDFPKKSGPVVLYFCVR
protein production: failed
